Assay results taken from PMC9482650, “Quantitative fragmentomics allow affinity mapping of interactomes” (Nature Communications, 2022).

Columns and labels:
Test in all cases: holdup assay
Design in all cases: key: below the threshold = too weak to quantify, mostly under pKd 3.1 to 4
LIN7A, O14910 = target: T1, LIN7A, O14910
T1 sequence (O14910 103-200, limits assumed, looked up): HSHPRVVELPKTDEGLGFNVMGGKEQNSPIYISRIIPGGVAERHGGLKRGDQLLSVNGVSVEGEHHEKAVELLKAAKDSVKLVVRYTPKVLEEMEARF

DLG2_2, Q15700 = target: DLG2_2, Q15700
DLG4_3, P78352 = target: DLG4_3, P78352
SNTB1, Q13884 = target: T2, SNTB1, Q13884
T2 sequence (Q13884 107-205, limits assumed, looked up): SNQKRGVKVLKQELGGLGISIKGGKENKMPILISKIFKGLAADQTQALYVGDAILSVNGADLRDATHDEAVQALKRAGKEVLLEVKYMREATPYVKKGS

FRMPD2_2, Q68DX3 = target: FRMPD2_2, Q68DX3
GIPC2, Q8TF65 = target: GIPC2, Q8TF65
SYNJ2BP, P57105 = target: T3, SYNJ2BP, P57105
T3 sequence (P57105 8-110, limits assumed, looked up): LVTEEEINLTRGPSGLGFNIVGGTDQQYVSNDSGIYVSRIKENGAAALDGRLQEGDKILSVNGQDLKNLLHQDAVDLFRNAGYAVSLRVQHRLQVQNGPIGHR

MPDZ_5, O75970 = target: T4, MPDZ_5, O75970
T4 sequence (O75970 695-796, limits assumed, looked up): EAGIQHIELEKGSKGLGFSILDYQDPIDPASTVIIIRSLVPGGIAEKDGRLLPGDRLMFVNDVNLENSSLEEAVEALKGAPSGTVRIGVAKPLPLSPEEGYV

PDZD7_3, Q9H5P4 = target: T5, PDZD7_3, Q9H5P4
T5 sequence (Q9H5P4 857-944, limits assumed, looked up): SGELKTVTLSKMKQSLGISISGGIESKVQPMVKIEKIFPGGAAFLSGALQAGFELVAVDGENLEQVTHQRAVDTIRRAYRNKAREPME

GRID2IP_1, A4D2P6 = target: GRID2IP_1, A4D2P6
PARD3B_1, Q8TEW8 = target: T6, PARD3B_1, Q8TEW8
T6 sequence (Q8TEW8 196-299, limits assumed, looked up): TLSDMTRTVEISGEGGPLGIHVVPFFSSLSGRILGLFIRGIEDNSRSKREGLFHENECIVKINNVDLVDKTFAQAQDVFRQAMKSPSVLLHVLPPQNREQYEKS

GOPC, Q9HD26 = target: GOPC, Q9HD26
DLG1_2, Q12959 = target: DLG1_2, Q12959
PCLO, Q9Y6V0 = target: T7, PCLO, Q9Y6V0
T7 sequence (Q9Y6V0 4491-4600, limits assumed, looked up): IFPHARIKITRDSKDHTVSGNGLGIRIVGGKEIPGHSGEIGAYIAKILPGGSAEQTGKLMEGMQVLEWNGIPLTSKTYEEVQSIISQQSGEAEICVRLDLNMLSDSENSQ

DLG1_3, Q12959 = target: DLG1_3, Q12959
PTPN13_1, Q12923 = target: T8, PTPN13_1, Q12923
T8 sequence (Q12923 1088-1188, limits assumed, looked up): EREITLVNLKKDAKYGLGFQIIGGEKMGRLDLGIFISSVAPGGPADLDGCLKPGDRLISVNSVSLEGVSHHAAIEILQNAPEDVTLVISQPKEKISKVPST

LRRC7, Q96NW7 = target: T9, LRRC7, Q96NW7
T9 sequence (Q96NW7 1440-1537, limits assumed, looked up): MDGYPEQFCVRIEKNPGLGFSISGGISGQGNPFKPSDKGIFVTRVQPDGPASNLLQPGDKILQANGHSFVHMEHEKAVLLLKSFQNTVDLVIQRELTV

RAPGEF6, Q8TEU7 = target: T10, RAPGEF6, Q8TEU7
T10 sequence (Q8TEU7 525-625, limits assumed, looked up): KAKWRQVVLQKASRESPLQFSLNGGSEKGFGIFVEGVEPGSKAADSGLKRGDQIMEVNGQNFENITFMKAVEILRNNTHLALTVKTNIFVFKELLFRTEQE

DLG2_3, Q15700 = target: DLG2_3, Q15700
ARHGAP21, Q5T5U3 = target: T11, ARHGAP21, Q5T5U3
T11 sequence (Q5T5U3 45-169, limits assumed, looked up): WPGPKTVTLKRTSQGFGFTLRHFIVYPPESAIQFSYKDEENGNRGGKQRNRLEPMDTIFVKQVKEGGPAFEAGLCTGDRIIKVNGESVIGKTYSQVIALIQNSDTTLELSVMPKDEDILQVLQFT

Inadl_10, Q8NI35 = target: Inadl_10, Q8NI35
GRIP2_7, Q9C0E4 = target: GRIP2_7, Q9C0E4
SIPA1L2, Q9P2F8 = target: T12, SIPA1L2, Q9P2F8
T12 sequence (Q9P2F8 945-1036, limits assumed, looked up): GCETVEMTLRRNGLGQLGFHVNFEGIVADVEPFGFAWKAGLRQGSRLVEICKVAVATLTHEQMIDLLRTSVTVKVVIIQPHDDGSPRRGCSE

HTRA1, Q92743 = target: HTRA1, Q92743
GRIP2_3, Q9C0E4 = target: GRIP2_3, Q9C0E4
[1] = plain residues with an end cap or a label only (N-terminal biotin on a linker: ahx)
[2] = plain residues with an end cap or a label only (N-terminal biotin on a linker: ttds)

Chain of GRID2IP_1, A4D2P6 (A4D2P6 1-87): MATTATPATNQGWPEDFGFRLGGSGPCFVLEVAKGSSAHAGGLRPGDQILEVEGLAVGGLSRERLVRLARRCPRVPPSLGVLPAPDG
Chain of Inadl_10, Q8NI35 (Q8NI35 1673-1763): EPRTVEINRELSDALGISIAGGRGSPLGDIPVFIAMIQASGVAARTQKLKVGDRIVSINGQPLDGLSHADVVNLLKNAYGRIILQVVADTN
Chain of GIPC2, Q8TF65 (Q8TF65 112-203): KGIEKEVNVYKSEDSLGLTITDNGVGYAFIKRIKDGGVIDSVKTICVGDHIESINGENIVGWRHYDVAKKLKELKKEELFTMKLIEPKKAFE
Chain of DLG1_2, Q12959 (Q12959 314-412): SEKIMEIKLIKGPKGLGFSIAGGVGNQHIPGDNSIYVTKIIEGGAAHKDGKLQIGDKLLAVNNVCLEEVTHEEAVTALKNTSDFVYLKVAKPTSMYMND
Chain of GRIP2_3, Q9C0E4 (Q9C0E4 238-339): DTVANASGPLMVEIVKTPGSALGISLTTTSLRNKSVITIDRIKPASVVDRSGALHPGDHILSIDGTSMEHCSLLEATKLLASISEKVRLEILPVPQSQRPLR
Chain of GRIP2_7, Q9C0E4 (Q9C0E4 934-1023): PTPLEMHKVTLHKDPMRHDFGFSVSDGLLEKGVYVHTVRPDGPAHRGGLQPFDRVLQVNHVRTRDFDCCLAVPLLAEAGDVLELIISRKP
Chain of HTRA1, Q92743 (Q92743 360-477): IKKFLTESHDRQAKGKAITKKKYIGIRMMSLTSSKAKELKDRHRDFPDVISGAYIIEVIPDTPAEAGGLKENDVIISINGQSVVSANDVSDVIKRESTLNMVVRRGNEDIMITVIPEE
Chain of DLG1_3, Q12959 (Q12959 457-571): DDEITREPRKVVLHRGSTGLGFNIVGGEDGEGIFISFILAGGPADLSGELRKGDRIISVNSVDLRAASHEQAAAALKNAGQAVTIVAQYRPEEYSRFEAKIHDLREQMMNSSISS
Chain of DLG4_3, P78352 (P78352 306-403): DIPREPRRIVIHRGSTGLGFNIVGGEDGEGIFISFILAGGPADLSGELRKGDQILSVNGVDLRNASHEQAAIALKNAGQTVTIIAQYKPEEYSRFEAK
Chain of FRMPD2_2, Q68DX3 (Q68DX3 944-1038): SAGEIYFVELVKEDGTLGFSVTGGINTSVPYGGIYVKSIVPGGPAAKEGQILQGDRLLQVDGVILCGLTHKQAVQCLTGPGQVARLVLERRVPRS

B1: SHROOM4, Q9ULL8 (peptide)
chain: ESLLLGPSNF
pKd (LIN7A, O14910; [1]): below the threshold | pKd (DLG2_2, Q15700; [1]): below the threshold | pKd (DLG4_3, P78352; [1]): below the threshold | pKd (SNTB1, Q13884; [1]): below the threshold | pKd (FRMPD2_2, Q68DX3; [1]): below the threshold | pKd (GIPC2, Q8TF65; [1]): below the threshold | pKd (SYNJ2BP, P57105; [1]): below the threshold | pKd (MPDZ_5, O75970; [1]): below the threshold | pKd (PDZD7_3, Q9H5P4; [1]): below the threshold | pKd (GRID2IP_1, A4D2P6; [1]): below the threshold | pKd (PARD3B_1, Q8TEW8; [1]): below the threshold | pKd (GOPC, Q9HD26; [1]): below the threshold | pKd (DLG1_2, Q12959; [1]): below the threshold | pKd (PCLO, Q9Y6V0; [1]): below the threshold | pKd (DLG1_3, Q12959; [1]): below the threshold | pKd (PTPN13_1, Q12923; [1]): below the threshold | pKd (LRRC7, Q96NW7; [1]): below the threshold | pKd (RAPGEF6, Q8TEU7; [1]): below the threshold | pKd (DLG2_3, Q15700; [1]): below the threshold | pKd (ARHGAP21, Q5T5U3; [1]): below the threshold | pKd (Inadl_10, Q8NI35; [1]): below the threshold | pKd (GRIP2_7, Q9C0E4; [1]): below the threshold | pKd (SIPA1L2, Q9P2F8; [1]): below the threshold | pKd (HTRA1, Q92743; [1]): below the threshold | pKd (GRIP2_3, Q9C0E4; [1]): below the threshold

B2: KCTD3, Q9Y597 (peptide)
chain: SDSSGQEYSL
pKd (LIN7A, O14910; [1]): below the threshold | pKd (DLG2_2, Q15700; [1]): below the threshold | pKd (DLG4_3, P78352; [1]): below the threshold | pKd (SNTB1, Q13884; [1]): below the threshold | pKd (FRMPD2_2, Q68DX3; [1]): below the threshold | pKd (GIPC2, Q8TF65; [1]): 3.64 | pKd (SYNJ2BP, P57105; [1]): below the threshold | pKd (MPDZ_5, O75970; [1]): below the threshold | pKd (PDZD7_3, Q9H5P4; [1]): below the threshold | pKd (GRID2IP_1, A4D2P6; [1]): below the threshold | pKd (PARD3B_1, Q8TEW8; [1]): below the threshold | pKd (GOPC, Q9HD26; [1]): below the threshold | pKd (DLG1_2, Q12959; [1]): below the threshold | pKd (PCLO, Q9Y6V0; [1]): below the threshold | pKd (DLG1_3, Q12959; [1]): below the threshold | pKd (PTPN13_1, Q12923; [1]): below the threshold | pKd (LRRC7, Q96NW7; [1]): below the threshold | pKd (RAPGEF6, Q8TEU7; [1]): below the threshold | pKd (DLG2_3, Q15700; [1]): below the threshold | pKd (ARHGAP21, Q5T5U3; [1]): below the threshold | pKd (Inadl_10, Q8NI35; [1]): below the threshold | pKd (GRIP2_7, Q9C0E4; [1]): below the threshold | pKd (SIPA1L2, Q9P2F8; [1]): below the threshold | pKd (HTRA1, Q92743; [1]): 3.98 | pKd (GRIP2_3, Q9C0E4; [1]): below the threshold

B3: TMIGD1, Q6UXZ0 (peptide)
chain: DKDPHSETAL
pKd (LIN7A, O14910; [2]): below the threshold | pKd (DLG2_2, Q15700; [2]): below the threshold | pKd (DLG4_3, P78352; [2]): below the threshold | pKd (SNTB1, Q13884; [2]): 4.53 | pKd (FRMPD2_2, Q68DX3; [2]): below the threshold | pKd (GIPC2, Q8TF65; [2]): below the threshold | pKd (SYNJ2BP, P57105; [2]): 4.42 | pKd (MPDZ_5, O75970; [2]): below the threshold | pKd (PDZD7_3, Q9H5P4; [2]): 4.07 | pKd (GRID2IP_1, A4D2P6; [2]): below the threshold | pKd (PARD3B_1, Q8TEW8; [2]): below the threshold | pKd (GOPC, Q9HD26; [2]): below the threshold | pKd (DLG1_2, Q12959; [2]): below the threshold | pKd (PCLO, Q9Y6V0; [2]): below the threshold | pKd (DLG1_3, Q12959; [2]): below the threshold | pKd (PTPN13_1, Q12923; [2]): below the threshold | pKd (LRRC7, Q96NW7; [2]): below the threshold | pKd (RAPGEF6, Q8TEU7; [2]): below the threshold | pKd (DLG2_3, Q15700; [2]): below the threshold | pKd (ARHGAP21, Q5T5U3; [2]): below the threshold | pKd (Inadl_10, Q8NI35; [2]): below the threshold | pKd (GRIP2_7, Q9C0E4; [2]): below the threshold | pKd (SIPA1L2, Q9P2F8; [2]): below the threshold | pKd (HTRA1, Q92743; [2]): below the threshold | pKd (GRIP2_3, Q9C0E4; [2]): below the threshold

B4: SLC4A7, Q9Y6M7 (peptide)
chain: KKYVDAETSL
pKd (LIN7A, O14910; [2]): below the threshold | pKd (DLG2_2, Q15700; [2]): below the threshold | pKd (DLG4_3, P78352; [2]): 3.59 | pKd (SNTB1, Q13884; [2]): 4.46 | pKd (FRMPD2_2, Q68DX3; [2]): below the threshold | pKd (GIPC2, Q8TF65; [2]): 3.68 | pKd (SYNJ2BP, P57105; [2]): 4.28 | pKd (MPDZ_5, O75970; [2]): below the threshold | pKd (PDZD7_3, Q9H5P4; [2]): 3.77 | pKd (GRID2IP_1, A4D2P6; [2]): below the threshold | pKd (PARD3B_1, Q8TEW8; [2]): 3.65 | pKd (GOPC, Q9HD26; [2]): 4.09 | pKd (DLG1_2, Q12959; [2]): 3.56 | pKd (PCLO, Q9Y6V0; [2]): below the threshold | pKd (DLG1_3, Q12959; [2]): 3.75 | pKd (PTPN13_1, Q12923; [2]): below the threshold | pKd (LRRC7, Q96NW7; [2]): below the threshold | pKd (RAPGEF6, Q8TEU7; [2]): below the threshold | pKd (DLG2_3, Q15700; [2]): below the threshold | pKd (ARHGAP21, Q5T5U3; [2]): below the threshold | pKd (Inadl_10, Q8NI35; [2]): below the threshold | pKd (GRIP2_7, Q9C0E4; [2]): below the threshold | pKd (SIPA1L2, Q9P2F8; [2]): below the threshold | pKd (HTRA1, Q92743; [2]): 3.71 | pKd (GRIP2_3, Q9C0E4; [2]): below the threshold
